Assay results published in the supplement of paper PMC10126150.
± gives the standard deviation of the averaged measurements.

System: ATP
Test: switch fluorescence ratio, 500 uM ATP over buffer (Cy3 cluster intensity, sum of 5 cycles each) (fold (ratio)); higher = stronger signal-on switching upon ATP binding; sequences stand for … in TCGTCGGCAGCGTCAGATGTGTATAAGAGACAGTTTTTTTTTTTTTTTTTTTTTTTTT…TC
Settings: aptamer strand: ATP DNA aptamer (quencher-CACCTGGGGGAGTATTGCGGAGGAAGG + anchor), 100 nM annealed; ATP concentration: 500 uM
Summary of the method: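 Five buffer/ATP imaging cycles were run on Cy3-labelled switching-strand clusters on a modified Illumina MiSeq flow-cell, with NaOH stripping and re-annealing between cycles. In each cycle, clusters annealed to 100 nM quencher-labelled ATP aptamer were imaged in selection buffer, then after 15 min with 500 uM ATP at 22 °C. Per cluster, the fluorescence ratio is summed target-cycle over summed buffer-cycle Cy3 intensity, averaged per switch-domain sequence. Only clusters within 100-1000 RFU were kept.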
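Also: ATP exposure 15 min at 22 °C before imaging.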

| Sequence | switch fluorescence ratio |
| --- | --- |
| TAAGCAGAGG | 1.17 ± 0.13 |
| TAAGCATATG | 1.011 ± 0.0037 |
| TAAGCCATCT | 1.04 ± 0.054 |
| TAAGCGATCA | 1.02 ± 0.018 |
| TAAGCGGAAT | 1.03 ± 0.013 |
| TAAGCTTTTT | 1 ± 0.033 |
| TAAGGATATG | 1.01 ± 0.0069 |
| TAAGGATTGT | 1.032 ± 0.0063 |
| TAAGGCCTGT | 0.9978 ± 0.0099 |
| TAAGGCTTAT | 0.988 ± 0.016 |
| TAAGGGAAAT | 1 ± 0.065 |
| TAAGGGCAAA | 1.02 ± 0.032 |
| TAAGGGCCTT | 0.992 ± 0.026 |
| TAAGGGCGGA | 1.01 ± 0.023 |
| TAAGGGGAAT | 1 ± 0.039 |
| TAAGGGGATA | 1.06 ± 0.11 |
| TAAGGGGATC | 0.987 ± 0.059 |
| TAAGGGGGG | 1.01 ± 0.029 |
| TAAGGGGGT | 1 ± 0.031 |
| TAAGGGGTAA | 0.947 ± 0.019 |
| TAAGGGGTTA | 0.992 ± 0.029 |
| TAAGGGTTGC | 1.03 ± 0.016 |
| TAAGGGTTGG | 0.978 ± 0.03 |
| TAAGGTAATA | 1.03 ± 0.051 |
| TAAGGTAGG | 0.967 ± 0.029 |
| TAAGGTGGGT | 1.002 ± 0.0017 |

| Sequence | switch fluorescence ratio |
| --- | --- |
| TAAGTAAATA | 0.9762 ± 0.004 |
| TAAGTCCTGT | 0.998 ± 0.033 |
| TAAGTGCCAA | 1.01 ± 0.032 |
| TAAGTGGAAA | 0.992 ± 0.05 |
| TAAGTGGAAT | 0.999 ± 0.022 |
| TAAGTGGGGT | 0.979 ± 0.026 |
| TAAGTTAAGC | 1 ± 0.064 |
| TAAGTTAGTT | 0.979 ± 0.027 |
| TAAGTTATAG | 1.02 ± 0.042 |
| TAAGTTATTT | 0.986 ± 0.031 |
| TAAGTTTGTG | 0.996 ± 0.05 |
| TAATAATATT | 1 ± 0.018 |
| TAATAATTAA | 0.992 ± 0.024 |
| TAATACGAGT | 1.02 ± 0.014 |
| TAATACTGAA | 1.01 ± 0.029 |
| TAATACTTTT | 1.07 ± 0.098 |
| TAATAGAGGG | 1.03 ± 0.027 |
| TAATAGGAAG | 1.26 ± 0.43 |
| TAATAGGCTT | 1.01 ± 0.027 |
| TAATAGGGGC | 0.991 ± 0.05 |
| TAATAGGGTG | 1.08 ± 0.042 |
| TAATAGGGTT | 1.01 ± 0.027 |
| TAATAGTAGT | 0.997 ± 0.022 |
| TAATAGTATA | 1 ± 0.013 |
| TAATAGTGGC | 1.06 ± 0.068 |
| TAATAGTGGG | 1.03 ± 0.041 |

| Sequence | switch fluorescence ratio |
| --- | --- |
| TAATATCCTA | 1 ± 0.048 |
| TAATATGGAG | 0.99 ± 0.034 |
| TAATATTTAG | 0.9863 ± 0.0031 |
| TAATATTTT | 0.966 ± 0.035 |
| TAATCACGGG | 1.09 ± 0.017 |
| TAATCAGTAG | 1.02 ± 0.015 |
| TAATCCACGG | 1.05 ± 0.064 |
| TAATCGAAGC | 1 ± 0.048 |
| TAATCGGGCG | 1.02 ± 0.022 |
| TAATCTTTTG | 0.986 ± 0.026 |
| TAATGAAAAA | 1 ± 0.039 |
| TAATGAGGAA | 1.004 ± 0.01 |
| TAATGAGGCT | 1.03 ± 0.014 |
| TAATGAGGTG | 1.04 ± 0.023 |
| TAATGAGTGC | 0.997 ± 0.04 |
| TAATGCCTGT | 0.979 ± 0.021 |
| TAATGCTAAT | 1.07 ± 0.073 |
| TAATGGTGTG | 1 ± 0.022 |
| TAATGGTTAG | 1.016 ± 0.0048 |
| TAATGTGGTT | 0.989 ± 0.033 |
| TAATGTTCTC | 1.02 ± 0.011 |
| TAATGTTGCA | 1.02 ± 0.029 |
| TAATTAACAT | 0.9883 ± 0.0092 |
| TAATTAACTT | 1.09 ± 0.12 |
| TAATTAATAC | 1.08 ± 0.017 |
| TAATTAATAT | 1 ± 0.048 |

| Sequence | switch fluorescence ratio |
| --- | --- |
| TAATTACTCA | 1.045 ± 0.01 |
| TAATTAGAGT | 0.967 ± 0.046 |
| TAATTAGTTT | 0.982 ± 0.015 |
| TAATTATGCC | 1.05 ± 0.04 |
| TAATTATTTT | 1.01 ± 0.03 |
| TAATTCAGGT | 1 ± 0.011 |
| TAATTCGTAC | 1.07 ± 0.078 |
| TAATTCTTAG | 0.989 ± 0.02 |
| TAATTGAAAA | 1.14 ± 0.15 |
| TAATTGCGGG | 0.9554 ± 0.0095 |
| TAATTGTTGC | 0.969 ± 0.016 |
| TAATTTAGAT | 1.028 ± 0.0095 |
| TAATTTCAAG | 1.014 ± 0.0039 |
| TAATTTCTGG | 0.9896 ± 0.0085 |
| TAATTTTGTG | 0.975 ± 0.044 |
| TACAAAGGGA | 1.01 ± 0.027 |
| TACAACTCTC | 0.963 ± 0.077 |
| TACAAGGCTT | 0.993 ± 0.027 |
| TACAAGTTCT | 0.9814 ± 0.0042 |
| TACACGGTCA | 1.047 ± 0.0054 |
| TACACTTCTC | 1.08 ± 0.025 |
| TACAGAATCG | 1.014 ± 0.0014 |
| TACAGCGCGT | 1.01 ± 0.021 |
| TACAGGCGGA | 1.02 ± 0.021 |
| TACAGGGAAC | 0.974 ± 0.014 |
| TACATAGTTC | 1.032 ± 0.0018 |

| Sequence | switch fluorescence ratio |
| --- | --- |
| TACATTAATT | 1.02 ± 0.047 |
| TACATTGGGC | 1 ± 0.013 |
| TACCAAGTCC | 1.05 ± 0.061 |
| TACCAGCGCT | 0.993 ± 0.058 |
| TACCAGGGAT | 1.1 ± 0.14 |
| TACCATTTAG | 0.997 ± 0.025 |
| TACCCCCGTT | 1.36 ± 0.041 |
| TACCGGCTCA | 0.999 ± 0.017 |
| TACCGGGGC | 1.06 ± 0.033 |
| TACCGGGGGG | 1.03 ± 0.029 |
| TACCGGGGTA | 1.01 ± 0.03 |
| TACCGGTCGG | 0.999 ± 0.019 |
| TACCGTACGA | 1.5 ± 0.019 |
| TACCGTTTGC | 1.19 ± 0.089 |
| TACCTAGGGG | 1.06 ± 0.039 |
| TACCTCTTAA | 1.05 ± 0.026 |
| TACCTTCTTG | 1.176 ± 0.0027 |
| TACGAAAAGA | 1.04 ± 0.052 |
| TACGAAGTCG | 1.0075 ± 0.00084 |
| TACGAATAAT | 1.1 ± 0.075 |
| TACGAGGGGA | 1.03 ± 0.026 |
| TACGAGGGTC | 0.969 ± 0.024 |
| TACGAGGGTG | 1.06 ± 0.034 |
| TACGATACTC | 1.62 ± 0.026 |
| TACGATGAGG | 1.05 ± 0.018 |
| TACGATTGGA | 1.034 ± 0.0011 |

| Sequence | switch fluorescence ratio |
| --- | --- |
| TACGATTTGG | 0.993 ± 0.0027 |
| TACGCATTTG | 1.08 ± 0.011 |
| TACGCCATAT | 1.46 ± 0.18 |
| TACGCCGGTA | 0.961 ± 0.032 |
| TACGCGATTT | 1.09 ± 0.08 |
| TACGGAGTGG | 1.06 ± 0.026 |
| TACGGATACA | 1.18 ± 0.048 |
| TACGGCGGAA | 1.02 ± 0.047 |
| TACGGCTATC | 1.16 ± 0.047 |
| TACGGGACGC | 1.12 ± 0.047 |
| TACGGGACGG | 1.07 ± 0.023 |
| TACGGGATGT | 1.046 ± 0.0092 |
| TACGGGGACT | 1.11 ± 0.028 |
| TACGGGGGAG | 0.995 ± 0.02 |
| TACGGGGGGG | 1.07 ± 0.074 |
| TACGGGGTAA | 0.995 ± 0.022 |
| TACGGGGTGC | 1.07 ± 0.095 |
| TACGGGTGCT | 1.16 ± 0.16 |
| TACGGTCGAG | 1.1 ± 0.082 |
| TACGGTGTGC | 0.989 ± 0.024 |
| TACGGTTCGC | 1.02 ± 0.019 |
| TACGTAGGGT | 1.19 ± 0.28 |
| TACGTATTCC | 1.171 ± 0.011 |
